Like-named read-outs stand apart in the source and are kept apart here.
How the values were obtained:
[1] = biological target: T1, CELF1 RRM1-2 (UniProt Q92879 1-187); assay: CG-MALS
[2] = biological target: T2, TDP43 RRM1 (UniProt Q13148 101-192); assay: CG-MALS
[3] = biological target: T1, CELF1 RRM1-2; assay: EMSA
[4] = biological target: T2, TDP43 RRM1; assay: CG-MALS; remark: listed apart in the source

T1 sequence (Q92879 1-187): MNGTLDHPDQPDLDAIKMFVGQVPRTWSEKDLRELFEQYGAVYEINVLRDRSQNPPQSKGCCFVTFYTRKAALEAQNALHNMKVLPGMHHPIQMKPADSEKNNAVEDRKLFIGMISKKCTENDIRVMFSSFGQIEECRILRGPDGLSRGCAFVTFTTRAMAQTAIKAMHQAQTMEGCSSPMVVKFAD
T2 sequence (Q13148 101-192): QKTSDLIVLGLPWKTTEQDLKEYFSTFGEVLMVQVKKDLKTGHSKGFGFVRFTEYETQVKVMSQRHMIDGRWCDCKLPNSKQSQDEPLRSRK

B1: (GU)22 ssRNA (ssRNA)
RNA: GUGUGUGUGUGUGUGUGUGUGUGUGUGUGUGUGUGUGUGUGUGU
B1 was tested, and the Kd [1] was 390 ± 30 nM.

B2: (GT)12 ssDNA (ssDNA)
DNA: GTGTGTGTGTGTGTGTGTGTGTGT
For B2, the Kd [2] was 1340 ± 120 nM.

B3: (UGUU)4 ssRNA (ssRNA)
RNA: UGUUUGUUUGUUUGUU
B3: binds [3].

B4: (TG)6 ssDNA (ssDNA)
DNA: TGTGTGTGTGTG
In the case of B4, the Kd [4] is reported as 10400 ± 3200 nM.

— article PMC11447847
